{"source": "paper PMC10722498", "about": "“Fixing Flavins: Hijacking a Flavin Transferase for Equipping Flavoproteins with a Covalent Flavin Cofactor” (Journal of the American Chemical Society, 2023)", "molecules": {"B1": {"name": "BtNR (Bacillus tequilensis) (protein)", "chain": "MADIKKQILDAYNFRHATKEFDPNKKVSDSDFEFILETGRLSPSSLGLEPWKFVVVQNPEFREKLREYTWGAQKQLPTASHFVLILARTAKDIKYNADYIKRHLKEVKQMPQDVSEGYISKTEEFQKNDLHLLESDRTLFDWASKQTYIALGNMMTAAAQIGVDSCPIEGFQYDHIHRILEEEGLLENGSFDISVMAAFGYRVRDPRPKTRSAVEDVVKWV", "notes": "recombinant, coexpressed with ApbE, purified"}, "B2": {"name": "BtNR (Bacillus tequilensis; A11D/A17T/F14S/H16A/N13L/R15G/Y12G) (protein)", "chain": "B1 chain with A11D, Y12G, N13L, F14S, R15G, H16A, A17T", "notes": "as for B1"}}, "key": {"PpSB1-LOV": {"target": "T1, PpSB1-LOV (Pseudomonas putida, UniProt Q88E39)", "T1 construct": "gene PP_4629; dimer", "T1 sequence (Q88E39 1-142)": "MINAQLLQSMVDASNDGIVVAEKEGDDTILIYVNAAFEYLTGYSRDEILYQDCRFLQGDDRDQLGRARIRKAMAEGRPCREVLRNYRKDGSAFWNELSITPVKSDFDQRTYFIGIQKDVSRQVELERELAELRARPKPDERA", "test": "absorbance of purified holoprotein; SDS-PAGE fluorescence; ESI-MS", "format": "binding", "conditions": "dissociable, noncovalent FMN"}, "miniSOG [1]": {"target": "T2, miniSOG (Arabidopsis thaliana, UniProt P93025, I387M/N390S/S394T/S409G/C426G/A437D/T438I/Q440S/K441G/I442A/R443T/F470L)", "T2 construct": "gene PHOT2; engineered LOV domain of phototropin 2, 106 residues, several mutations abolishing flavin-cysteine adduct; recombinant, coexpressed with ApbE", "test": "X-ray crystal structure […] Å; MS", "format": "binding", "conditions": "miniSOG-F2; covalent; phosphoester to OG1 of Thr57; attached in vivo by ApbE"}, "miniSOG [2]": {"target": "T3, miniSOG (Arabidopsis thaliana, UniProt P93025, I387M/N390S/S394T/S409G/C426G/F470L, form not given)", "T3 construct": "gene PHOT2; engineered LOV domain of phototropin 2, 106 residues, several mutations abolishing flavin-cysteine adduct; recombinant, coexpressed with ApbE", "test": "SDS-PAGE and MS", "format": "binding", "conditions": "covalent; attached in vivo by ApbE"}, "steady-state kinetics": {"substrate": "NC(=O)N/N=C/c1ccc([N+](=O)[O-])o1", "test": "steady-state kinetics", "format": "biochemical, Bacillus tequilensis", "text": "steady-state kinetics on BtNR"}, "[3]": {"conditions": "BtNR-F3, covalent FMN 100% (cofactor)"}}, "note": "Substitutions are numbered along the chain they refer to. Numbers in names are those of the source.", "data": [{"molecule": "Cc1cc2nc3c(=O)[nH]c(=O)nc-3n(C[C@H](O)[C@H](O)[C@H](O)COP(=O)(O)O)c2cc1C", "note": "[FMN]", "values": [{"measurement": "absorbance of purified holoprotein; SDS-PAGE fluorescence; ESI-MS", "setting": "PpSB1-LOV", "value": "the wild-type protein did not yield in-gel fluorescence as it contains a dissociable FMN"}, {"measurement": "X-ray crystal structure 2.0 Å; MS", "setting": "miniSOG [1]", "value": "the introduced phosphoester bond between OG1 of Thr57 and the phosphate of FMN"}, {"measurement": "SDS-PAGE and MS", "setting": "miniSOG [2]", "value": "SDS-PAGE and MS analyses revealed that both proteins were fully covalently flavinylated"}]}, {"molecule": "B1", "values": [{"measurement": "Km", "setting": "steady-state kinetics; dissociable FMN", "value": "64 ± 11.5", "unit": "µM"}, {"measurement": "kcat", "setting": "steady-state kinetics; dissociable FMN", "value": "32 ± 2.3", "unit": "s⁻¹"}, {"measurement": "kcat/Km", "setting": "steady-state kinetics; dissociable FMN", "value": 500000, "unit": "M⁻¹ s⁻¹"}]}, {"molecule": "B2", "values": [{"measurement": "Km", "setting": "steady-state kinetics; [3]", "value": "42 ± 6.6", "unit": "µM"}, {"measurement": "kcat", "setting": "steady-state kinetics; [3]", "value": "4.5 ± 0.2", "unit": "s⁻¹"}, {"measurement": "kcat/Km", "setting": "steady-state kinetics; [3]", "value": 110000, "unit": "M⁻¹ s⁻¹"}]}]}
